In data set [1] the test system is BifR (Burkholderia thailandensis E264). In words: EMSA.
Data set [2] shares this test system. In words: EMSA. This is another data set of the same source.
Data set [3] has as its target BifR (biofilm regulator), MarR homologue from Burkholderia thailandensis E264 (Burkholderia thailandensis E264). In words: cross-linking.
For data set [4] the target is unchanged. As to the kind of experiment: SEC.
For data set [5] the target is unchanged. As to the kind of experiment: SEC. The source holds these as a separate data set.

Like-named read-outs stand apart in the source and are kept apart here.

For two substances, Kd and stoichiometry N results are on record in publication PMC5565208.

For 355 bp ecsC-emrB operator DNA, the Kd in data set [1] was determined as 0.9 nM; in data set [2], 1.4 nM.
In the case of “BifR (biofilm regulator), MarR homologue from Burkholderia thailandensis E264 (natural protein)”, the stoichiometry N in data set [3] was 2; in data set [4], 2; in data set [5], 4.
